Four molecules from PMC6340890, “Transcriptional mechanism of IRF8 and PU.1 governs microglial activation in neurodegenerative condition” can be followed below.

The target in data set [1] is T1, IRF8;PU.1 (Mus musculus;Mus musculus, UniProt P23611;P17433 1-424;1-272, |). Nature of the data set: EMSA; synergistic; LightShift Chemiluminescent EMSA Kit; buffer, salt and pH not stated; supershift incubation 4 °C, 20 min. To be noted: protein: recombinant;recombinant; tags: Flag;Flag; copies: 1;1; label: 5'-biotin (both strands). A general note: In EMSA bound probe runs differently from free probe, usually more slowly.

Data set [2] addresses T1, IRF8;PU.1. Nature of the data set: EMSA; synergistic; supershifted by anti-IRF8 and by anti-PU.1, not by control IgG; LightShift Chemiluminescent EMSA Kit; buffer, salt and pH not stated; supershift incubation 4 °C, 20 min. To be noted: protein: recombinant;recombinant; tags: Flag;Flag; copies: 1;1; label: 5'-biotin (both strands).

T1 sequence (P23611 whole entry, chain 1 of 2, other chains not shown): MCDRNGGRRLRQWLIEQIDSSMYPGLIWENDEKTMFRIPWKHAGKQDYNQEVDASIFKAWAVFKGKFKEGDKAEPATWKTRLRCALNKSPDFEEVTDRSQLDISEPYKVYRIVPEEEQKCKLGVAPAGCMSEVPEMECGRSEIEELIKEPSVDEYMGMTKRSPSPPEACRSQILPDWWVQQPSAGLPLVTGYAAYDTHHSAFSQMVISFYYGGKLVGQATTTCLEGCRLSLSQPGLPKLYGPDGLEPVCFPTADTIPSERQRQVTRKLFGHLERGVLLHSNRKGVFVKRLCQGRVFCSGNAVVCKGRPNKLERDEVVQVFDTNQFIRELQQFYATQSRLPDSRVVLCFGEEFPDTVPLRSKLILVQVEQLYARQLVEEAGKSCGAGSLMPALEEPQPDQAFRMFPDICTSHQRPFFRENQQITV

B1: Ikbkb probe (dsDNA)
DNA 1: CCGTCCTCAGTTTCACTTCCTGTCAGTGCT
DNA 2: AGCACTGACAGGAAGTGAAACTGAGGACGG
In the case of B1, the binding result with IRF8;PU.1 [1] is given as “binds”.

B2: Nfkb1 probe (dsDNA)
DNA 1: TCCCCCCTGGTTTCCCTTCCTGTAAATACA
DNA 2: TGTATTTACAGGAAGGGAAACCAGGGGGGA
As for B2, the binding result with IRF8;PU.1 [1] is on record as “binds”.

B3: Ripk2 probe (dsDNA)
DNA 1: ACAGTCTTACTTTCACTTCCTGAATTCATT
DNA 2: AATGAATTCAGGAAGTGAAAGTAAGACTGT
On to B3, for which the binding result in the data set with IRF8;PU.1 [2] was “binds”.

B4: Tak1 probe (dsDNA)
DNA 1: CCTTCCATGGTTTCAGTTCCTCTTAAGGGA
DNA 2: TCCCTTAAGAGGAACTGAAACCATGGAAGG
As for B4, the binding result with IRF8;PU.1 [2] was “binds”.
